Experimental data as given in patent publication US20170269069.

Assays:
[1] = system: recombinant histone H3, wild type
[2] = system: nucleosome arrays containing unmodified rH3
[3] = system: H3 peptide (aa10-35) K18ac
[4] = system: rH3 K4 monomethyl-lysine analogue
[5] = system: rH3 K4 trimethyl-lysine analogue
[6] = system: reconstituted native nucleosome arrays (modified native histones purified from HeLa cells)
[7] = system: rH3 K36 trimethyl-lysine analogue
[8] = system: rH3 K27 dimethyl-lysine analogue
[9] = system: rH3 K27 monomethyl-lysine analogue
[10] = system: rH3 K36 monomethyl-lysine analogue
[11] = system: rH3 K36 dimethyl-lysine analogue
[12] = system: rH3 K18 acetyl-lysine analogue
[13] = system: rH3 K4 dimethyl-lysine analogue
[14] = system: rH3 K9 trimethyl-lysine analogue
[15] = system: rH3 K9 dimethyl-lysine analogue
[16] = system: rH3 K27 trimethyl-lysine analogue
[17] = system: rH3 K9 monomethyl-lysine analogue
[18] = system: nucleosome arrays containing the rH3 K18 acetyl-lysine analogue

Chain of recombinant MMP-9 (aa115-730) (chain, as listed by the source): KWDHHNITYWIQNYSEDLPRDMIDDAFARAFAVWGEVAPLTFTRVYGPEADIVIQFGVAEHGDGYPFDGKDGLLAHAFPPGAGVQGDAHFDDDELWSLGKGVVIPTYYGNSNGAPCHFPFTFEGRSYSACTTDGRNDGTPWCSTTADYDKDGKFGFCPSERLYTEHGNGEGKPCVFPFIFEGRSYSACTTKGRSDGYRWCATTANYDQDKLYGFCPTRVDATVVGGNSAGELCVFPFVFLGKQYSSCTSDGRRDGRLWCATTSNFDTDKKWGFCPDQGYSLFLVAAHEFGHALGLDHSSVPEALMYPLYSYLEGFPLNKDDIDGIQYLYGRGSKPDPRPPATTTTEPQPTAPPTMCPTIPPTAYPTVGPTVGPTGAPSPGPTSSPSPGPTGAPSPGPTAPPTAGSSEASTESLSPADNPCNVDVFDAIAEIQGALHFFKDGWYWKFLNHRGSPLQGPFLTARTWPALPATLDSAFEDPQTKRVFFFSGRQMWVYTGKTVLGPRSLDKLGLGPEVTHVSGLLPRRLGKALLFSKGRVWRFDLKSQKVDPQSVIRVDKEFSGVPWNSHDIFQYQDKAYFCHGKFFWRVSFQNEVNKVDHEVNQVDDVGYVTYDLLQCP

Substance: recombinant MMP-9 (aa115-730)
- H3NT protease activity (in vitro H3NT cleavage assay, Western blot with the H3CT antibody) [1]: only rMMP-9 possessed H3NT protease activity
- rMMP-9 protease activity (in vitro H3NT cleavage assay) [2]: completely resistant to rMMP-9 protease activity
- cleaved H3 (peptide hydrolysis measured with fluorescamine; kinetic analysis), against unmodified H3 or H3K27me1 peptides [3]: 3-fold increase of cleaved H3 compared to unmodified H3 or H3K27me1 peptides
- MMP-9 activity (in vitro H3NT cleavage assay) [4]: nearly identical to rH3 control in all cases
- MMP-9 activity (in vitro H3NT cleavage assay) [5]: nearly identical to rH3 control in all cases
- rMMP-9 protease activity (in vitro H3NT cleavage assay) [6]: rMMP-9 displayed robust activity for modified native nucleosome arrays
- MMP-9 activity (in vitro H3NT cleavage assay) [7]: nearly identical to rH3 control in all cases
- MMP-9 activity (in vitro H3NT cleavage assay) [8]: nearly identical to rH3 control in all cases
- MMP-9 activity (in vitro H3NT cleavage assay) [9]: nearly identical to rH3 control in all cases
- MMP-9 activity (in vitro H3NT cleavage assay) [10]: nearly identical to rH3 control in all cases
- MMP-9 activity (in vitro H3NT cleavage assay) [11]: nearly identical to rH3 control in all cases
- H3NT proteolysis (in vitro H3NT cleavage assay) [12]: the specific acetylation of K18 robustly increased H3NT proteolysis by rMMP-9
- MMP-9 activity (in vitro H3NT cleavage assay) [13]: nearly identical to rH3 control in all cases
- MMP-9 activity (in vitro H3NT cleavage assay) [14]: nearly identical to rH3 control in all cases
- MMP-9 activity (in vitro H3NT cleavage assay) [15]: nearly identical to rH3 control in all cases
- MMP-9 activity (in vitro H3NT cleavage assay) [16]: nearly identical to rH3 control in all cases
- MMP-9 activity (in vitro H3NT cleavage assay) [17]: nearly identical to rH3 control in all cases
- H3NT cleavage (in vitro H3NT cleavage assay) [18]: the specific acetylation of H3K18 was both necessary and sufficient for H3NT cleavage by rMMP-9 in a nucleosome array context

Substance: recombinant USP14
- H3NT protease activity (in vitro H3NT cleavage assay, Western blot with the H3CT antibody) [1]: only rMMP-9 possessed H3NT protease activity
